Data published in article PMC2978343.

Tests used:
[1] = target: Ecl18kI R174A mutant (UniProt O87963); assay: atomic force microscopy
[2] = target: Ecl18kI R174A mutant (UniProt O87963)
[3] = target: Ecl18kI restriction endonuclease, wild type (UniProt O87963); assay: tethered particle motion

| stoichiometry N [1] | phage lambda DNA cleavage activity, % of wt [2] [%] | k unloop (loop breakage rate constant, tetramer to two DNA-bound dimers) [3] [s⁻¹] | Substance |
| --- | --- | --- | --- |
| 2 | 0.2 |  | Ecl18kI R174A mutant (from UniProt O87963 1-305) (enzyme) |
|  |  | 0.86 | Ecl18kI restriction endonuclease, wild type (from UniProt O87963 1-305) (enzyme) |
